The series can be described thus: protein stability index of a GFP-peptide fusion (yeast GPS) (PSI 1-4); higher = more stable; sorted into four equal gates, so the index is relative within each strain. An outline of the steps: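 Mid-log yeast cultures in leucine-free medium, carrying a pooled plasmid library, were sorted into four equal gates by their GFP/Cherry fluorescence ratio. Each plasmid expressed Cherry along with GFP fused upstream of a tiled 17-residue yeast protein peptide. Plasmids recovered from each gate were PCR-amplified and Illumina-sequenced, with reads assigned to strains by barcodes. The protein stability index was obtained by summing each gate's read frequency weighted by its gate number.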

± gives the uncertainty stated by the source.

DELDAIGTKRFDSEKSG [RPT5] showed a protein stability index (doa10∆) of 2.46 ± 0.066, a protein stability index (pdr5∆) of 1.66 ± 0.058, a protein stability index (san1∆) of 2.25 ± 0.086 and a protein stability index (ubr1∆) of 1.99 ± 0.057.
The matching figures for TVHSKSRTRAHAQSKRE [RPL19A]: 3.19 ± 0.074, 3.07 ± 0.079, 2.96 ± 0.068 and 3.19 ± 0.069.
For the sequence EQDPYSNASQMGNTGSG [RPB3], the protein stability index is, setting by setting: (doa10∆) 2.7 ± 0.13; (pdr5∆) 2.45 ± 0.14; (san1∆) 2.21 ± 0.2; (ubr1∆) 2.95 ± 0.1.
As for NNPANNTNNNNSTGHSS [SWI1], the protein stability index (doa10∆) came out at 2.58 ± 0.036, the protein stability index (pdr5∆) came out at 2.15 ± 0.035, the protein stability index (san1∆) is 2.59 ± 0.034 and the protein stability index (ubr1∆) came out at 2.12 ± 0.036.
MVSTPELKKYMDKKILL [SMX2]: the protein stability index (doa10∆) worked out at 3.25 ± 0.15, the protein stability index (pdr5∆) came to 3.62 ± 0.12, the protein stability index (san1∆) was 3.26 ± 0.092 and the protein stability index (ubr1∆) was determined as 3 ± 0.074.
In turn, IIFNYVPGPGTKLIQYE [CSL4] yielded a protein stability index (pdr5∆) of 2.99 ± 0.1 and a protein stability index (ubr1∆) of 2.84 ± 0.098.
Take KNGLGLNFSTTAPANTT [MED2]: the protein stability index (doa10∆) was 2.16 ± 0.07, the protein stability index (pdr5∆) worked out at 2.38 ± 0.047, the protein stability index (san1∆) is 2.15 ± 0.072 and the protein stability index (ubr1∆) is 2.06 ± 0.042.
Take KIDLASGKITDFIKFDA [RPS4A]: the protein stability index (doa10∆) came to 3.26 ± 0.072, the protein stability index (pdr5∆) came out at 3.21 ± 0.078, the protein stability index (san1∆) is 3.13 ± 0.07 and the protein stability index (ubr1∆) amounted to 3.35 ± 0.082.
The matching figures for NEPLSEIEIEGVMSLLQ [YAR002W/NUP60]: 3.31 ± 0.093, 3.32 ± 0.14, 3.22 ± 0.11 and 3.19 ± 0.094.
Regarding MTLLTDSLRKLYVDSES [MTW1], the protein stability index reads like this: (doa10∆) 1.45 ± 0.078; (pdr5∆) 1.79 ± 0.11; (san1∆) 1.65 ± 0.11; (ubr1∆) 1.59 ± 0.077.
GLMLGEFVDDYTVNVVD [RPN11]: the protein stability index worked out at 3.32 ± 0.13 (doa10∆), 3.26 ± 0.1 (pdr5∆), 3.13 ± 0.14 (san1∆) and 3.09 ± 0.076 (ubr1∆).
GCDENDSTVNKSITLKG [YDL088C/ASM4] registered a protein stability index (doa10∆) of 3.1 ± 0.091, a protein stability index (pdr5∆) of 3.27 ± 0.068, a protein stability index (san1∆) of 3.32 ± 0.06 and a protein stability index (ubr1∆) of 3.11 ± 0.066.
As for PEYFESPLQSSKSKQSF [YMR129W/POM152], the protein stability index runs as follows: (doa10∆) 2.78 ± 0.12; (pdr5∆) 2.8 ± 0.08; (san1∆) 2.91 ± 0.084; (ubr1∆) 2.96 ± 0.076.
Consider ENIPVALCKNRKCQFRT [POP1], for which the protein stability index is, setting by setting: (doa10∆) 2.46 ± 0.048; (pdr5∆) 2.68 ± 0.059; (san1∆) 2.32 ± 0.079; (ubr1∆) 1.96 ± 0.035.
Take KASTYGELVLDIEVPDV [SNF12]: the protein stability index reads like this: (doa10∆) 2.61 ± 0.058; (pdr5∆) 2.28 ± 0.051; (san1∆) 2.13 ± 0.075; (ubr1∆) 1.87 ± 0.045.
As for TQVNILKENNAILQKSL [YIL149C/MLP2], the protein stability index amounted to 2.44 ± 0.06 (doa10∆), 2.55 ± 0.062 (pdr5∆), 2.63 ± 0.076 (san1∆) and 2.65 ± 0.059 (ubr1∆).
IALGEDIGKEMSLRHFG [RPN1]: the protein stability index is, setting by setting: (doa10∆) 3.2 ± 0.088; (pdr5∆) 3.07 ± 0.11; (san1∆) 2.55 ± 0.2; (ubr1∆) 3.34 ± 0.14.
On to DFRTRYIDIRTNNVLRK [MTW1], for which the protein stability index is, setting by setting: (doa10∆) 2.45 ± 0.087; (pdr5∆) 2.86 ± 0.21; (san1∆) 2.43 ± 0.27; (ubr1∆) 2.66 ± 0.14.
Take IPQSQQVPQVRSMSGQP [SNF5]: the protein stability index reads like this: (doa10∆) 2.52 ± 0.05; (pdr5∆) 2.55 ± 0.047; (san1∆) 2.5 ± 0.047; (ubr1∆) 2.7 ± 0.039.
For QGMEGTVDLALFGSPPF [YMR129W/POM152], the protein stability index runs as follows: (doa10∆) 3.39 ± 0.079; (pdr5∆) 3.41 ± 0.068; (san1∆) 3.35 ± 0.076; (ubr1∆) 3.21 ± 0.047.
Consider QGGAMNKKSEQALDISK [SRP72], for which the protein stability index is, setting by setting: (doa10∆) 3.07 ± 0.067; (pdr5∆) 3.12 ± 0.058; (san1∆) 3 ± 0.043; (ubr1∆) 3.07 ± 0.063.
The matching figures for KWKPVLSHIVYFLVLSP [RPN5]: 1.39 ± 0.033, 1.25 ± 0.031, 1.2 ± 0.057 and 1.15 ± 0.025.
Take QLKFEGFALNSDIVFIH [BRR2]: the protein stability index is, setting by setting: (doa10∆) 1.87 ± 0.064; (pdr5∆) 1.71 ± 0.061; (san1∆) 2.06 ± 0.065; (ubr1∆) 1.81 ± 0.036.
Regarding DFLGVASTGSGKTLAFV [PRP28], the protein stability index stood at 3.42 ± 0.26 (doa10∆), 3.05 ± 0.22 (pdr5∆), 2.92 ± 0.22 (san1∆) and 3.31 ± 0.061 (ubr1∆).
In turn, PIPIAVLDSYTPSTNEP [FAS1] displayed a protein stability index (doa10∆) of 2.78 ± 0.07, a protein stability index (pdr5∆) of 2.59 ± 0.063, a protein stability index (san1∆) of 2.69 ± 0.074 and a protein stability index (ubr1∆) of 2.85 ± 0.041.
Taken in the same sequence, the figures for IDSSNLPLQAQQQLYGG [SWI1] were 2.91 ± 0.057, 3.1 ± 0.062, 2.75 ± 0.077 and 2.87 ± 0.043.
